Test results published in article PMC6872938.

What was measured:
[1] = biological target: MBP-tagged HzTransib transposase (Transib transposase from Helicoverpa zea), residues 17-507 (Helicoverpa zea); assay: SEC-MALS
[2] = biological target: His6-tagged HzTransib transposase (Transib transposase from Helicoverpa zea), residues 17-507 (Helicoverpa zea); assay: SEC-MALS

A stoichiometry N [1] of 2 was found for “MBP-tagged HzTransib transposase (Transib transposase from Helicoverpa zea), residues 17-507 (enzyme)” in this work.

A stoichiometry N [2] of 2 was found for “His6-tagged HzTransib transposase (Transib transposase from Helicoverpa zea), residues 17-507 (enzyme)” in this work.
